Test results as given in paper PMC7057995, “Structural basis of RNA polymerase I pre-initiation complex formation and promoter melting”.

Assays:
CF with Rrn7 Δloop α7-α8 = CF with Rrn7 Δloop α7-α8 (Saccharomyces cerevisiae, UniProt P32786;P40992;Q04712 1-894;1-286+298-514;1-507, internal_change); assay: EMSA; 0.2 pmol DNA; 0.25-1 pmol CF; binding not impaired; EMSA: 20 mM HEPES/KOH pH 7.8, 10% glycerol, 200 mM KCl, 1 mM MgCl2, 0.1 mg/ml BSA, 1 mM DTT, 30 min, temperature not stated; 6% native gel, 0.5x TBE; settings: protein: recombinant; tags: His (Ni-NTA purified); copies: 1;1;1; label: NTS -3 Atto647N; TS -5 Cy3; blunt
Chain of CF with Rrn7 Δloop α7-α8 (P32786 whole entry, stated change not applied, chain 1 of 3): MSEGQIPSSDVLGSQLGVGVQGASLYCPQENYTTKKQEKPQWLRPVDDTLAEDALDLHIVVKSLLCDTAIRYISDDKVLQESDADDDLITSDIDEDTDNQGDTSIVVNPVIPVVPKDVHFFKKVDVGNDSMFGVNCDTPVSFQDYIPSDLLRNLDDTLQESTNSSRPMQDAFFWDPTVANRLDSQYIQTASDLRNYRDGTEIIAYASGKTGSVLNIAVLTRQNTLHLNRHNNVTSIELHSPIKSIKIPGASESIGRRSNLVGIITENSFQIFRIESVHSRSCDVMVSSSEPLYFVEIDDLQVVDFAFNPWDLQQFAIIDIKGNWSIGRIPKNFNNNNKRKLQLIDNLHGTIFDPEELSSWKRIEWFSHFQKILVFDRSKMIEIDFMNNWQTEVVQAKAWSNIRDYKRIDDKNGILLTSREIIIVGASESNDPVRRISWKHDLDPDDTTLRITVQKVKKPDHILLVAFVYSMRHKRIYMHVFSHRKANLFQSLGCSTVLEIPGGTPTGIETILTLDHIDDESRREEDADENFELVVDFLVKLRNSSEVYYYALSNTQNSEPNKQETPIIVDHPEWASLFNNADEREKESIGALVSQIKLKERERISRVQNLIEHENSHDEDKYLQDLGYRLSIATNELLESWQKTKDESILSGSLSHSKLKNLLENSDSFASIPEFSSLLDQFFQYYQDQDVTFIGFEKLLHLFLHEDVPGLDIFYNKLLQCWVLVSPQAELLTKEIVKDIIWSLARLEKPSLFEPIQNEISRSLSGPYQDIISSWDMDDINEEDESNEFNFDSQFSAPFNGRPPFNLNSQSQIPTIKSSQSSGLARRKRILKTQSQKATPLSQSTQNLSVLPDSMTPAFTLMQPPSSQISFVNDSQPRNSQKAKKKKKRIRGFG
Chain of CF with Rrn7 Δloop α7-α8 (P40992 other isoform, or with tags, fused parts or gaps | mutant, chain 2 of 3): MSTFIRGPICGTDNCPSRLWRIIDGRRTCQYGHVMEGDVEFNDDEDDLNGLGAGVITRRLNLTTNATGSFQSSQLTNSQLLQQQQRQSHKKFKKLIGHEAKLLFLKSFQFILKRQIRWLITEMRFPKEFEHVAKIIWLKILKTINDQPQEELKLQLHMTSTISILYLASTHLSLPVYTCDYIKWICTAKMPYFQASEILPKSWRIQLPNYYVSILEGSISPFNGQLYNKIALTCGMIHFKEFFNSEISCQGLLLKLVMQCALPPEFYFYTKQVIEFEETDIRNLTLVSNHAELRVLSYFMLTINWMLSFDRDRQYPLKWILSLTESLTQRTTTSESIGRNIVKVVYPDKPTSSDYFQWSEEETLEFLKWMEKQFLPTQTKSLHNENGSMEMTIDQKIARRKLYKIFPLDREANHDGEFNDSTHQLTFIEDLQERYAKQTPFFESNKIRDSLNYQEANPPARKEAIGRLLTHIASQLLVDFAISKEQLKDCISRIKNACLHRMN
Chain of CF with Rrn7 Δloop α7-α8 (Q04712 whole entry, stated change not applied, chain 3 of 3): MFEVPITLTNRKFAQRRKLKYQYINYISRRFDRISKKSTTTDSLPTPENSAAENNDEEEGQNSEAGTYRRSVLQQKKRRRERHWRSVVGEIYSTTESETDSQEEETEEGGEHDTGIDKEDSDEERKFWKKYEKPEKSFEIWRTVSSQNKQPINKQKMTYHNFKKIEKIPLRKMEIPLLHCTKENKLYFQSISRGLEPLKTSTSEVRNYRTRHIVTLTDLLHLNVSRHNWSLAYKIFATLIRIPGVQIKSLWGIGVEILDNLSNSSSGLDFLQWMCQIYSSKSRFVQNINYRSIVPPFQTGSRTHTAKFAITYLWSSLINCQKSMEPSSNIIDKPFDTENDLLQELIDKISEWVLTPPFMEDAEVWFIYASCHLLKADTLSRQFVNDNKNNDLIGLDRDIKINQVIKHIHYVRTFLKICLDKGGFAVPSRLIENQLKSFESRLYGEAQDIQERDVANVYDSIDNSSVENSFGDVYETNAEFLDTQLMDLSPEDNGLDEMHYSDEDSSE

CF with Rrn7 Δα4a = CF with Rrn7 Δα4a (Saccharomyces cerevisiae, UniProt P32786;P40992;Q04712 1-894;1-208+221-514;1-507, internal_change); assay: as above; settings: protein: recombinant; tags: His (Ni-NTA purified); copies: 1;1;1; label: NTS -3 Atto647N; TS -5 Cy3; blunt
Chain of CF with Rrn7 Δα4a (P32786 whole entry, stated change not applied, chain 1 of 3): as the sequence (P32786 whole entry, stated change not applied, chain 1 of 3) above
Chain of CF with Rrn7 Δα4a (P40992 other isoform, or with tags, fused parts or gaps | mutant, chain 2 of 3): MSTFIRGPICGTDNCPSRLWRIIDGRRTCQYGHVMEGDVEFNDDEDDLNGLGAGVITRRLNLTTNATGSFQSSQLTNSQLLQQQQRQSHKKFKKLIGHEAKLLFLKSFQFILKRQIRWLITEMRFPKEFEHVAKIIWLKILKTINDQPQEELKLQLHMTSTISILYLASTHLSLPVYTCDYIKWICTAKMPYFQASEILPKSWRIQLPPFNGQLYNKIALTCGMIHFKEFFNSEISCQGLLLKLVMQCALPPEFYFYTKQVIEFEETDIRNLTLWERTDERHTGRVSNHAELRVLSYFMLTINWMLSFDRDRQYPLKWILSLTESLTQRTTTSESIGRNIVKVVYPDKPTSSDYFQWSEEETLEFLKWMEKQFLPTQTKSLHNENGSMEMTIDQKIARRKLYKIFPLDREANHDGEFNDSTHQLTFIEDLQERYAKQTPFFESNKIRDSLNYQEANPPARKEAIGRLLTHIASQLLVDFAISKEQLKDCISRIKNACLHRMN
Chain of CF with Rrn7 Δα4a (Q04712 whole entry, stated change not applied, chain 3 of 3): as the sequence (Q04712 whole entry, stated change not applied, chain 3 of 3) above

[1] = target: RNA polymerase I;Rrn3;Core factor (CF) wild type: Rrn6/Rrn7/Rrn11;UAF … (Saccharomyces cerevisiae;Saccharomyces …, UniProt P10964;P22138;P07703;P46669;P50106;P20434;P20435;P28000;P20436;P32529;P22139;P40 …, |||||); assay: size exclusion chromatography; complete early PIC, stable throughout SEC; EMSA: 20 mM HEPES/KOH pH 7.8, 10% glycerol, 200 mM KCl, 1 mM MgCl2, 0.1 mg/ml BSA, 1 mM DTT, 30 min, temperature not stated; 6% native gel, 0.5x TBE

| Binder | binding result (CF with Rrn7 Δloop α7-α8) | binding result (CF with Rrn7 Δα4a) | binding result [1] |
| --- | --- | --- | --- |
| rDNA promoter -83 to +26 (EMSA; ID 4691/4692) (dsDNA) DNA 1: AAAAGTAAGATTTTAGTTTGTAATGGGAGGGGGAATTTAGTCATGGAGTACAAGTGTGAGGAAAAGTAGTTGGGAGGTACTTCATACCAAAGGGGTTCAACACAAGGGT DNA 2: ACCCTTGTGTTGAACCCCTTTGGTATGAAGTACCTCCCAACTACTTTTCCTCACACTTGTACTCCATGACTAAATTCCCCCTCCCATTACAAACTAAAATCTTACTTTT | binds | binds |  |
| rDNA promoter -155 to +8 (PIC scaffold; ID 4693/4694) (dsDNA) DNA 1: AGCTTAAATTGAAGTTTTTCTCGGCGAGAAATACGTAGTTAAGGCAGAGCGACAGAGAGGGCAAAAGAAAATAAAAGTAAGATTTTAGTTTGTAATGGGAGGGGGGGTTTAGTCATGGAGTACAAGTGTGAGGAAAAGTAGTTGGGAGGTACTTCATGCGAAA DNA 2: TTTCGCATGAAGTACCTCCCAACTACTTTTCCTCACACTTGTACTCCATGACTAAACCCCCCCTCCCATTACAAACTAAAATCTTACTTTTATTTTCTTTTGCCCTCTCTGTCGCTCTGCCTTAACTACGTATTTCTCGCCGAGAAAAACTTCAATTTAAGCT |  |  | binds |
